Assays:
AroD = target: T1, AroD (Salmonella enterica, UniProt P58687); test: SPR, single binding isotherm fitting
T1 construct: source cited as Light et al., 2013; used as SPR control protein
T1 sequence (P58687 1-252): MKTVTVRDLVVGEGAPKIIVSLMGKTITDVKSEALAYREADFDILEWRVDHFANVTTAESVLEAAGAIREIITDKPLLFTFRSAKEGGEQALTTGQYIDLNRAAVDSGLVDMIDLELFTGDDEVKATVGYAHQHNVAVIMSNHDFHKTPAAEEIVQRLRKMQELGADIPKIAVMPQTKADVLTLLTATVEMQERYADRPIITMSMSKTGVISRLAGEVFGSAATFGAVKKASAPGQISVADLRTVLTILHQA
Source text: SPR, single binding isotherm fitting on AroD | each of the proteins selectively responded to its natural ligand, NADH and DQA, respectively

SaBADH [1] = target: T2, SaBADH (Staphylococcus aureus, UniProt A0A0H2X0S3); test: SPR, immobilized SaBADH; assay type: binding; settings: 2 mM ADP, pH 5.0-8.0, 298 K, two-day-old surface
T2 construct: gene betB; pMCSG7 tagged protein (Ni-NTA), E. coli BL21(DE3)/pMAGIC; tetramer/dimer; G234S cloned in p15TV-LIC
T2 sequence (A0A0H2X0S3 1-496): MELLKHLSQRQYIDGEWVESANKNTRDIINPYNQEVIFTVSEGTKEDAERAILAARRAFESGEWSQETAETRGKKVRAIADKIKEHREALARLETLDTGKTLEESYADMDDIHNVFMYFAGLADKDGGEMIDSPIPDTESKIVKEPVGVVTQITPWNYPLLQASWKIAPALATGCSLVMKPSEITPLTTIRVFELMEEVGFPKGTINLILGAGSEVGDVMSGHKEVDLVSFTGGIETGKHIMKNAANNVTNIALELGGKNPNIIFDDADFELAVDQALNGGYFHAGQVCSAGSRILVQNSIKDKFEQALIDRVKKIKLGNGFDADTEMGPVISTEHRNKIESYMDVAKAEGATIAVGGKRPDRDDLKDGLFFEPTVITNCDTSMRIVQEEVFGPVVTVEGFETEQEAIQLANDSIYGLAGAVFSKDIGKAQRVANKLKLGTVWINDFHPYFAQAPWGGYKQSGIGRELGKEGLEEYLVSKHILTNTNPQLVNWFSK

SaBADH [2] = target: T2, SaBADH; test: SPR, immobilized SaBADH(BME+); assay type: binding
SaBADH [3] = target: T2, SaBADH; test: NADH absorbance at […] nm; assay type: biochemical; settings: substrate inhibition; co-substrate NAD+; 100 mM potassium phosphate pH 8.0, 303 K
[4] = target: Gly234Ser mutant of SaBADH (G234S-SaBADH) (Staphylococcus aureus COL); test: crystal structure; X-ray structures of apo and NAD-bound forms, with and without BME; sitting-drop vapor diffusion at 295 K; assemblies analysed with PISA
[5] = target: betaine aldehyde dehydrogenase SACOL2628 from Staphylococcus aureus COL (SaBADH), wild type (Staphylococcus aureus COL); test: SEC-MALS; SaBADH^BME(+) 2 mg/ml on Superdex 200 10/300 GL in 10 mM Tris-HCl pH 8.3, 500 mM NaCl, 5 mM BME, 295 K
[6] = target: betaine aldehyde dehydrogenase SACOL2628 from Staphylococcus aureus COL (SaBADH), wild type (Staphylococcus aureus COL); test: crystal structure; X-ray structures of apo and NAD-bound forms, with and without BME; sitting-drop vapor diffusion at 295 K; assemblies analysed with PISA
[7] = target: betaine aldehyde dehydrogenase SACOL2628 from Staphylococcus aureus COL (SaBADH), wild type (Staphylococcus aureus COL); test: dynamic light scattering; SaBADH^BME(−) 10-100 uM in 10 mM Tris-HCl pH 8.3, 0.5 mM TCEP, with 0.5-2.5 M NaCl, 298 K
[8] = target: betaine aldehyde dehydrogenase SACOL2628 from Staphylococcus aureus COL (SaBADH), wild type (Staphylococcus aureus COL); test: dynamic light scattering; SaBADH^BME(−) 10-100 uM in 10 mM Tris-HCl pH 8.3, 0.5 mM TCEP, no added salt, 298 K
[9] = target: betaine aldehyde dehydrogenase SACOL2628 from Staphylococcus aureus COL (SaBADH), wild type (Staphylococcus aureus COL); test: dynamic light scattering; SaBADH^BME(−) 10-100 uM in 10 mM Tris-HCl pH 8.3, 0.5 mM TCEP, with 0.5-2.5 M KCl, 298 K
purified protein [10] = substrate: NC(=O)c1ccc[n+]([C@@H]2O[C@H](COP(=O)(O)OP(=O)(O)OC[C@H]3O[C@@H](n4cnc5c(N)ncnc54)[C@H](O)[C@@H]3O)[C@@H](O)[C@H]2O)c1; test: purified protein; settings: co-substrate betaine aldehyde, 100 mM potassium phosphate pH 8.0, 303 K, 30.0 °C, varied: cofactor
purified protein [11] = substrate: NC(=O)c1ccc[n+]([C@@H]2O[C@H](COP(=O)(O)OP(=O)(O)OC[C@H]3O[C@@H](n4cnc5c(N)ncnc54)[C@H](OP(=O)(O)O)[C@@H]3O)[C@@H](O)[C@H]2O)c1; test: purified protein; settings: co-substrate betaine aldehyde, 100 mM potassium phosphate pH 8.0, 303 K, 30.0 °C, varied: cofactor

O=C1C[C@@](O)(C(=O)O)C[C@@H](O)[C@@H]1O [3-dehydroquinic acid]
Kd (AroD): 244 µM

Nc1ncnc2c1ncn2[C@@H]1O[C@H](COP(=O)(O)OP(=O)(O)O)[C@@H](O)[C@H]1O [ADP]
SPR, immobilized SaBADH (SaBADH [1]): An acidic pH favored the ADP–SaBADH interaction

NC(=O)C1=CN([C@@H]2O[C@H](COP(=O)(O)OP(=O)(O)OC[C@H]3O[C@@H](n4cnc5c(N)ncnc54)[C@H](O)[C@@H]3O)[C@@H](O)[C@H]2O)C=CC1 [NADH]
Kd (SaBADH [2]): 4.5 µM

NC(=O)c1ccc[n+]([C@@H]2O[C@H](COP(=O)(O)OP(=O)(O)OC[C@H]3O[C@@H](n4cnc5c(N)ncnc54)[C@H](O)[C@@H]3O)[C@@H](O)[C@H]2O)c1 [NAD^+]
Kd (SaBADH [2]): 19.3 µM

C[N+](C)(C)CC=O [betaine aldehyde]
Betaine aldehyde (SaBADH [3]): 0.34 ± 0.06 mM

Gly234Ser mutant of SaBADH (G234S-SaBADH) (enzyme)
stoichiometry N [4]: 4

betaine aldehyde dehydrogenase SACOL2628 from Staphylococcus aureus COL (SaBADH), wild type (enzyme)
stoichiometry N [5]: 4
stoichiometry N [6]: 4
stoichiometry N [7]: 4
stoichiometry N [8]: 2
stoichiometry N [9]: 2

B1: SaBADH (Staphylococcus aureus subsp. aureus COL) (protein)
chain: T2 sequence (A0A0H2X0S3 1-496)
Km (purified protein [10]): 430 ± 30 µM
Km (purified protein [11]): 2260 ± 350 µM

Reference: article PMC4427200 (Acta Crystallographica Section D: Biological Crystallography, 2015)
